Experimental findings from a protein production outcome set (Wang et al. 2014) are described below.

The data set can be described thus: label from the status in PepcDB records.
As for “MAGVITGFAIILSVIGVGFLLAKLGVINDDKQRLVLNRIAFYAATPALLFNVVARSDPSALISPVIVVTFVATIVTAAVYCVISAIFFKKDIATTATGAAASAYVNSNNIGLPVSIYVLGTGAYVAPILVMQMVIFAPMILAALTSGDVKGSRGQKIWAAVKGSLLSPIVLASIAGLIVCLLEIQLPAAVMEPTIILGGASIPLILMSFGASLPSTNVLASKADRPSVLTATAIKIVGMPAITWLIAKAFGLEGDYLYAAVILAALPAAQNVYNYAATYRKGEIVARDTVFLTTFLALLGMLGIAALFGR”, the protein production entry is given as “not failed”. On to “MEKPGGFWIPKKSNKESSWEELAFAEDDAAGSLWPPRSYTCSFCRREFKSAQALGGHMNVHRRDRARLKQADDQYLFPKSSSSPEYPSHKDSDNIHETSCYTLVFNTKPNYFKTQHSCVIDLSSSSSLPYLTPSRVSSGLPGKQHTSSSPPSFVVEPSKNSKYIPSSSPWSCPSTVVEQKSCDLYEIPAMEGEKKRKTESDVPKIGHKAKLSLGNTTDLSVSMNLVIHQSFPITAHGSDEEIGRVDIRKRRRRHESPSQQSIFISSLSCKSDIITRNEESKHKGDRFEDLDLELRLGTDPPKGI”, for which the protein production result is listed as “failed”. For “MEQYKLVLEGAKQLKWETNEIKDIQDDEIIVKTIAGSISIGAELPQYNGSDVTDPHPFYPRKTGYESYGEVIEVGNQVTHVNVGDKVVSFYGHETIGIVKAHKVIRVPSSIQPKIALLSILSCDAAKGVLKLNPRQDEKVLIIGMGVIGLLACYFLKYYVGIEHVDVVEPNKNRRDFAKKFGTKNIYDSEEKIIETYNYGFECSATNSGFHTLQKALKTNGKICILSDGNIEELTLTANFYQKELQIIGSSDGYDYQKHADWFFEEIGKTPFIEEIFQHEIHYTSLIQCFDELSLGIIKPLKVYVSYE”, the protein production result is “failed”. In the case of “MMRFLFVDRIVQLSPGEWIKGIKHVTRDDAYLTTDDHGRLCFMPSLIGETLGQLAAWNVMQHNHFTARPVAGVVSSARLYRPAYVGETILLESNIDSLDEKAVQYHSIAKVGNDIIFTIDGALGPMLPMTEFISTEVIRQQFAEIYRPGDWSSVLALSSPVLIEENCSDCGMINSSMQFDRILASQPGISLIAEKRITRSASYFPDHFPKRPVLPMTVLLECKLNLAKEFIARAKYDRAYRISELRKIKMNEFVHPGDVVVCQVKVKQQMDDELILSYRCEVDGKRVCVVDIVLIPKGK”, the protein production result was “failed”. Take “MNYDMSSYFEDPEFKEALAKYEGMVENHTPAYFEADELIDIAEYYTLKGRHKDADKAIDLTLQLHPENTDALVFRIRSLMLQNKKEEAKVVAQLIANSTDRECRFLQADMLMEEDRIEEAEEIFKQLVMDEEYEVDTLLDIIQDYTNANQEEYAGQWVDCLFAHSDMQTLPKTNQRLRDVLCDYYSTFNKPDLAIPYLNMTLNEYPYSIEHWNELGKCHLQQCQYEEANEALDFALAIDDENTDSLTLKAFGYHQAGNLKESCDYYLRLANVSKNKTKAYLALAQIYLEMRDHASAISYIEKLINRKSGLTDYELAELYSDTALCHAYLGHTENGYKYINQALELNEHDAEIRIAAGRFFTIEAQKSDISEEEQENNLRNAEHQFTRALEFTPKEERFDVLFKIGSLYFDEHNFEYANQYFELINKEFPEDADATYFFLAYGYYHQQESASFMHYLAKIRKEIPDMYATMGTGDTILMTDTYFNEALRAIKEDVSTGKINLNKYL”: the protein production entry is given as “failed”. The result for “MVTPAQVARRAALWMLTSTVAFGLMAITIRLASSTIATAEIAFFRNAFGLLALLPLILRPGKPLPRTRQLPQYFARTLIGLASMLCGFWAIGHLPLSQAISLSYSTPLFVTVLAVVWLHEQVRLRRWLAVAAGFIGVLVILRPGSSTFTPGLLIALLAAVISAIVAIQIKQLSRSDDSDTVVFYTYVFWVPMSLIPALFQWTWPQGIGWVWLVATGIFGTAGQLFWTRALKLGEVSALQPISFMQLPLVALLGWWLFGEAIERHTVIGAAIIIGANVYIAHRETVLARRAATHAPVEGAKPGE” reads “failed”; that for “MNALGTKARVVGTGVLVLGLLSGCTTAAPSPSSPTPTQATPTQAASSNAGPGPASSAAVPAQQSAEAKLSPEAQIETDRLLILAAKANDAAKVRELIAAGGNVNAKDEIQDSAFLYAGAEGFNEVLQLTLAAGADVRSTNRYGGTALIPASEHGHTETVRILIAAGVPVDHVNNLGWTAMQEAILPNNGGPNQQDVVRQLLAAGATPDIRDPQGRTALQNAERLGFTEIAALIRNR”, “failed”.

In the case of “MRMRYQGRLSDWNDHKGFGFVTPHGGGDRAFVHISAFAQQTRRPRDGEIITYAIERDAHKRLNATQVRWADRTTAARTEQRRSGLPRKTLAAVSMLALAAATLMHVLPVIVPLWYAAASLVTLLIYAMDKSAAQRNQWRTPESSLHLLALIGGWPGALLAQEIHRHKCSKAAFQLTFWLTVALNVSALVLAVTETDLMATLPAVFD”, the protein production entry was “failed”.
